Article PMC10786891, “Massively parallel profiling of RNA-targeting CRISPR-Cas13d”

T1: EsCas13d, nuclease-dead (Eubacterium siraeum, UniProt B0MS50, R295A;H300A;R849A;H854A)
T1 sequence: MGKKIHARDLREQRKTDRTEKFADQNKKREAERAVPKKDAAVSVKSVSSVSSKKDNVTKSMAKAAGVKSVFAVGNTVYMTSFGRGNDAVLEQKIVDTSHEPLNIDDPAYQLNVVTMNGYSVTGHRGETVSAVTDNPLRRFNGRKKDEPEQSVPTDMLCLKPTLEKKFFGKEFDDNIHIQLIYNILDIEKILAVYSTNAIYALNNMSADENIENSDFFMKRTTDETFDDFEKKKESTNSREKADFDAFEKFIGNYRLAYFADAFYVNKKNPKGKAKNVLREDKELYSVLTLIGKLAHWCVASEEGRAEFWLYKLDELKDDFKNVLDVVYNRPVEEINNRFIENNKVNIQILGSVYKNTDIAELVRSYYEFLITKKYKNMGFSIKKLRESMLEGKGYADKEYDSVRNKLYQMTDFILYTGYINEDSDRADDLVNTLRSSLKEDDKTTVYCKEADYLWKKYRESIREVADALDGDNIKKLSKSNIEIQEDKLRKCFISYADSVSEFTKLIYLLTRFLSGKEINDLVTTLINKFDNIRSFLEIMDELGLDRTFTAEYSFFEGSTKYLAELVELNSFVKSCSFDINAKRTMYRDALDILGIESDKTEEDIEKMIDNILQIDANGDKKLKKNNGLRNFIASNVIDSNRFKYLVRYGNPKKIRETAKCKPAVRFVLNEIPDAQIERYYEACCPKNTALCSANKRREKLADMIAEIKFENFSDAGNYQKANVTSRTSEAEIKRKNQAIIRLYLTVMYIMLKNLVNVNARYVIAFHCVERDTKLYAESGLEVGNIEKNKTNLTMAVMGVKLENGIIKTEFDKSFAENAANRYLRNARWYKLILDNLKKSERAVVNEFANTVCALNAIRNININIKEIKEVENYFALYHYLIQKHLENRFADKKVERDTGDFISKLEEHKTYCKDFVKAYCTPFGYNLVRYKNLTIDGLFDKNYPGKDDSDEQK


Target: T1, EsCas13d, nuclease-dead
Experiment: crRNA (strand 1, pre-loaded); Mg2+; 40 mM Tris-HCl pH 7.5, 150 mM NaCl, 6 mM MgCl2, 1 mM DTT, 0.1% Tween-20, 0.2 mg/ml BSA; 25 C; 10 min per concentration, then washed
Details: tags: His6-TwinStrep-SUMO cleaved; N-terminal SNAP kept (SNAP-Surface 488); label: 3' end held by stalled T7 RNA polymerase

Row | Binder | Kd [nM]
1 | target 1 del4,del13 (mixed) RNA 1: CACCCGUGCAAAAAUGCAGGGGUCUAAAACUGAGCGGAUAACCUCUCUAUGG RNA 2: GGGAAUGGAUCCACAUCUACGAAUUCGUACCAUAGAGAGUUAUCCGUCACCGAGAUCGGAAGAGCACACGU | 16.5 ± 1.4
2 | target 1 A9G,A16U (mixed) RNA 1: CACCCGUGCAAAAAUGCAGGGGUCUAAAACUGAGCGGAUAACCUCUCUAUGG RNA 2: GGGAAUGGAUCCACAUCUACGAAUUCGUACCAUAGUGAGGUUGUCCGCUCACCGAGAUCGGAAGAGCACACGU | 82 ± 27
3 | target 1 complement block 4-6 (mixed) RNA 1: CACCCGUGCAAAAAUGCAGGGGUCUAAAACUGAGCGGAUAACCUCUCUAUGG RNA 2: GGGAAUGGAUCCACAUCUACGAAUUCGUACCAUAGAGAGGUUAUCGCGUCACCGAGAUCGGAAGAGCACACGU | 4.95 ± 0.15
4 | target 1 A9U,A20U (mixed) RNA 1: CACCCGUGCAAAAAUGCAGGGGUCUAAAACUGAGCGGAUAACCUCUCUAUGG RNA 2: GGGAAUGGAUCCACAUCUACGAAUUCGUACCUUAGAGAGGUUUUCCGCUCACCGAGAUCGGAAGAGCACACGU | 43 ± 4
5 | target 1 C7A,U19C (mixed) RNA 1: CACCCGUGCAAAAAUGCAGGGGUCUAAAACUGAGCGGAUAACCUCUCUAUGG RNA 2: GGGAAUGGAUCCACAUCUACGAAUUCGUACCACAGAGAGGUUAUACGCUCACCGAGAUCGGAAGAGCACACGU | 33.2 ± 3.5
6 | target 1 U10C,C22U (mixed) RNA 1: CACCCGUGCAAAAAUGCAGGGGUCUAAAACUGAGCGGAUAACCUCUCUAUGG RNA 2: GGGAAUGGAUCCACAUCUACGAAUUCGUAUCAUAGAGAGGUCAUCCGCUCACCGAGAUCGGAAGAGCACACGU | 56 ± 8
7 | target 1 insC 3' of 15,insU 3' of 14 (mixed) RNA 1: CACCCGUGCAAAAAUGCAGGGGUCUAAAACUGAGCGGAUAACCUCUCUAUGG RNA 2: GGGAAUGGAUCCACAUCUACGAAUUCGUACCAUAGAGCAUGGUUAUCCGCUCACCGAGAUCGGAAGAGCACACGU | 28.5 ± 2.3
8 | target 1 insC 3' of 19,insU 3' of 1 (mixed) RNA 1: CACCCGUGCAAAAAUGCAGGGGUCUAAAACUGAGCGGAUAACCUCUCUAUGG RNA 2: GGGAAUGGAUCCACAUCUACGAAUUCGUACCAUCAGAGAGGUUAUCCGCUCAUCCGAGAUCGGAAGAGCACACGU | 39 ± 8
9 | target 1 insA 3' of 19,insC 3' of 5 (mixed) RNA 1: CACCCGUGCAAAAAUGCAGGGGUCUAAAACUGAGCGGAUAACCUCUCUAUGG RNA 2: GGGAAUGGAUCCACAUCUACGAAUUCGUACCAUAAGAGAGGUUAUCCGCCUCACCGAGAUCGGAAGAGCACACGU | 48 ± 8
10 | target 1 A1C,C6U (mixed) RNA 1: CACCCGUGCAAAAAUGCAGGGGUCUAAAACUGAGCGGAUAACCUCUCUAUGG RNA 2: GGGAAUGGAUCCACAUCUACGAAUUCGUACCAUAGAGAGGUUAUCUGCUCCCCGAGAUCGGAAGAGCACACGU | 9.2 ± 0.9
11 | target 1 insA 3' of 12,insG 3' of 9 (mixed) RNA 1: CACCCGUGCAAAAAUGCAGGGGUCUAAAACUGAGCGGAUAACCUCUCUAUGG RNA 2: GGGAAUGGAUCCACAUCUACGAAUUCGUACCAUAGAGAGGAUUAGUCCGCUCACCGAGAUCGGAAGAGCACACGU | 46.9 ± 3.5
12 | target 1 insU 3' of 15,insC 3' of 3 (mixed) RNA 1: CACCCGUGCAAAAAUGCAGGGGUCUAAAACUGAGCGGAUAACCUCUCUAUGG RNA 2: GGGAAUGGAUCCACAUCUACGAAUUCGUACCAUAGAGUAGGUUAUCCGCUCCACCGAGAUCGGAAGAGCACACGU | 11.6 ± 1.1
13 | target 1 insC 3' of 22,insU 3' of 7 (mixed) RNA 1: CACCCGUGCAAAAAUGCAGGGGUCUAAAACUGAGCGGAUAACCUCUCUAUGG RNA 2: GGGAAUGGAUCCACAUCUACGAAUUCGUACCCAUAGAGAGGUUAUCUCGCUCACCGAGAUCGGAAGAGCACACGU | 47 ± 8
14 | target 1 insA 3' of 8,insA 3' of 4 (mixed) RNA 1: CACCCGUGCAAAAAUGCAGGGGUCUAAAACUGAGCGGAUAACCUCUCUAUGG RNA 2: GGGAAUGGAUCCACAUCUACGAAUUCGUACCAUAGAGAGGUUAUACCGCAUCACCGAGAUCGGAAGAGCACACGU | 8.4 ± 0.5
15 | target 1 insC 3' of 19,insG 3' of 2 (mixed) RNA 1: CACCCGUGCAAAAAUGCAGGGGUCUAAAACUGAGCGGAUAACCUCUCUAUGG RNA 2: GGGAAUGGAUCCACAUCUACGAAUUCGUACCAUCAGAGAGGUUAUCCGCUCGACCGAGAUCGGAAGAGCACACGU | 33 ± 5
16 | target 1 A1G,C6U (mixed) RNA 1: CACCCGUGCAAAAAUGCAGGGGUCUAAAACUGAGCGGAUAACCUCUCUAUGG RNA 2: GGGAAUGGAUCCACAUCUACGAAUUCGUACCAUAGAGAGGUUAUCUGCUCGCCGAGAUCGGAAGAGCACACGU | 8.9 ± 0.7
17 | target 1 insG 3' of 7 (mixed) RNA 1: CACCCGUGCAAAAAUGCAGGGGUCUAAAACUGAGCGGAUAACCUCUCUAUGG RNA 2: GGGAAUGGAUCCACAUCUACGAAUUCGUACCAUAGAGAGGUUAUCGCGCUCACCGAGAUCGGAAGAGCACACGU | 5.5 ± 0.16
18 | target 1 insA 3' of 13,insA 3' of 6 (mixed) RNA 1: CACCCGUGCAAAAAUGCAGGGGUCUAAAACUGAGCGGAUAACCUCUCUAUGG RNA 2: GGGAAUGGAUCCACAUCUACGAAUUCGUACCAUAGAGAGAGUUAUCCAGCUCACCGAGAUCGGAAGAGCACACGU | 4.18 ± 0.24
19 | target 1 C2A,G15U (mixed) RNA 1: CACCCGUGCAAAAAUGCAGGGGUCUAAAACUGAGCGGAUAACCUCUCUAUGG RNA 2: GGGAAUGGAUCCACAUCUACGAAUUCGUACCAUAGAUAGGUUAUCCGCUAACCGAGAUCGGAAGAGCACACGU | 29 ± 5
20 | target 1 U3C,G12A (mixed) RNA 1: CACCCGUGCAAAAAUGCAGGGGUCUAAAACUGAGCGGAUAACCUCUCUAUGG RNA 2: GGGAAUGGAUCCACAUCUACGAAUUCGUACCAUAGAGAGAUUAUCCGCCCACCGAGAUCGGAAGAGCACACGU | 11.1 ± 1.1
21 | target 1 A18C,C21A (mixed) RNA 1: CACCCGUGCAAAAAUGCAGGGGUCUAAAACUGAGCGGAUAACCUCUCUAUGG RNA 2: GGGAAUGGAUCCACAUCUACGAAUUCGUACAAUCGAGAGGUUAUCCGCUCACCGAGAUCGGAAGAGCACACGU | 88 ± 23
22 | target 1 insC 3' of 19,insG 3' of 6 (mixed) RNA 1: CACCCGUGCAAAAAUGCAGGGGUCUAAAACUGAGCGGAUAACCUCUCUAUGG RNA 2: GGGAAUGGAUCCACAUCUACGAAUUCGUACCAUCAGAGAGGUUAUCCGGCUCACCGAGAUCGGAAGAGCACACGU | 32 ± 4
23 | target 1 insC 3' of 11,insA 3' of 4 (mixed) RNA 1: CACCCGUGCAAAAAUGCAGGGGUCUAAAACUGAGCGGAUAACCUCUCUAUGG RNA 2: GGGAAUGGAUCCACAUCUACGAAUUCGUACCAUAGAGAGGUCUAUCCGCAUCACCGAGAUCGGAAGAGCACACGU | 21.1 ± 2
24 | target 1 insA 3' of 21,insA 3' of 10 (mixed) RNA 1: CACCCGUGCAAAAAUGCAGGGGUCUAAAACUGAGCGGAUAACCUCUCUAUGG RNA 2: GGGAAUGGAUCCACAUCUACGAAUUCGUACCAAUAGAGAGGUUAAUCCGCUCACCGAGAUCGGAAGAGCACACGU | 28.2 ± 2.4
25 | target 1 U3C,C21U (mixed) RNA 1: CACCCGUGCAAAAAUGCAGGGGUCUAAAACUGAGCGGAUAACCUCUCUAUGG RNA 2: GGGAAUGGAUCCACAUCUACGAAUUCGUACUAUAGAGAGGUUAUCCGCCCACCGAGAUCGGAAGAGCACACGU | 27 ± 7
26 | target 1 insU 3' of 20,insG 3' of 3 (mixed) RNA 1: CACCCGUGCAAAAAUGCAGGGGUCUAAAACUGAGCGGAUAACCUCUCUAUGG RNA 2: GGGAAUGGAUCCACAUCUACGAAUUCGUACCAUUAGAGAGGUUAUCCGCUGCACCGAGAUCGGAAGAGCACACGU | 9.4 ± 0.6
27 | target 1 G15A,A18U (mixed) RNA 1: CACCCGUGCAAAAAUGCAGGGGUCUAAAACUGAGCGGAUAACCUCUCUAUGG RNA 2: GGGAAUGGAUCCACAUCUACGAAUUCGUACCAUUGAAAGGUUAUCCGCUCACCGAGAUCGGAAGAGCACACGU | 58 ± 11
28 | target 1 G12C,C21A (mixed) RNA 1: CACCCGUGCAAAAAUGCAGGGGUCUAAAACUGAGCGGAUAACCUCUCUAUGG RNA 2: GGGAAUGGAUCCACAUCUACGAAUUCGUACAAUAGAGAGCUUAUCCGCUCACCGAGAUCGGAAGAGCACACGU | 58 ± 11
